# Measurements taken from the domain aggregation screens of Martell et al. (2025).
# Test: soluble fraction after stress (log2 fold change); higher = more stays soluble; pooled small domains, quantitative proteomics
# Conditions: stress: 75 degC
# 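Note: 20 min heating vs room temperature control held 20 min.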
row,Sequence,soluble fraction (log2)
1,HMEQPLSLKLANNAFSRFWGNANPAEKDTQPNNSDIAKWVIEQSGGKITQTMADKIAQIIRPEWAA,0.372
2,HMSRLMIVTPDGRIMDDVPEFGEVRTTTDVNGRVLVLDRNNVVIGFEMTPREYRREFGRNPF,-1.12
3,HMLTAHEAILKELRKMLLTGVLSPGEAVRPEIIGESFGVSAVPVREALRILEGEGQVLNRPHKGYVVT,-0.904
4,HMALLKRQDEILMYLYTQNKWITGNELAQLFHVSLRTIRNDISFINTEKSNSVLSNRNKGYHIAKDFVYNE,-1.26
5,HMEVPQKTLEILEPWRGRKGFLIPVLQAVQHEFGYVPKEAIETVSREMKMPTAEIYGVVTFYAQFH,-0.571
6,HMAVSPEEQKKRIIELFRNRNEVSFKEIFDLPTKGHFVITLLAVLDLARQQIVIMEQLENEGIIKFTKGA,0.134
7,HMGMKTSQKLARQREIVRLIRAQTIRTQAELADALRERAFPVSQPTLSKDIAELGLIKVPLPDSGYRYQLP,-1.73
8,HMVERLVVSPGAGVFAPNKAIANGTRISVGDVLGMVGEQEVRSLFDGVLQSFISVDGERLTAHQPVAWLRT,-0.587
9,HMTPVFGEEETVLQAAVRGIISDTDQWTMEAEAKSMLNQLGFSDYEEKMAHMSGGQKKRVALVNALLTP,0.116
10,HMDSDELEAFRLITSVNGVGPKLGIAILSEFTAEKLTVFIASGDAKALTAASGVGIKLAQRIVLELKDKVG,-0.351
11,HMNSNTIIINDIMTKIGKEVKNFTEIYSIILKALAEHGEEYVRTNTEYALKNFTGNFDIFLEQLLLK,-0.207
12,HMEIEEIDYGTFLQMVEDGVVEKIELTDTQIFLTSTVDNDDKVYTTGVMPDQDLTNRLIEAGVVNFGKVV,0.134
13,HMIDFTHEDIERLWNAIVHYVPERQKSDMAIDFIKSLEDIGVEHDEIKASAEYDPKLEEAINTVY,-0.424
14,HMYSVVGKKGIVIEDINYSTGTGQIKSEGEVWSAKTNEQINIPKGTEIEIESIDGVKVIVKPL,0.109
15,HMNKNLQLMINEIKKGLASEDIETRKKSVLMLSRIDAPEIIQVLEPLKDDSSEEIRKISSKIISVLSKKYT,-0.108
16,HMGAARVTPLYNLRLREGPSTATARLDVVPRGTTLEVRAWDETGDWAQVEYRGQIGWIAAWLAEVEGEAP,-0.69
17,HMKVPDVQYMNKDSAIEALTANELKYTIVEAENENVAAGVVISQSVERDSQVAPGTSVELVVSTG,0.212
18,HMTNTWNNIVERNDLFFKKFTNTPFNGKIETYWPNGNLKETGIITDGKKDNLWEYYYENGNPKEVEF,-0.876
19,HMNETHANKVYNFLKKKKKPLSAYEILKELASEGISAPTTIYRALNKLVSNGLIHKIESLNAWTV,0.251
20,HMNEIEIHINKLFGKISDSKRKQELMQEITQNLNEKVSDLVSQGQTREQAVKKAIEDFGDIDDLKDELDN,0.312
21,HMSDGTVYGSDGVIKVNLPQSGMLRIYATDGTTLVNRWQAAGIDTISMPRGLYIVRFDNQVWKVVV,-1.65
22,HMQTAAANPSPESILQAREAAGLSQSEAGALIYSGLRSWQHWEWGTRRMHPGLFELFLKKTGQI,-1.83
23,HMTTLDTVARQLRDRIREQLDPTGEMSDESLLRTIEEAVYRYSSSGHVLTANEKETVIRRIFHSFR,0.042
24,HMLINIKTNSAVNVRSGPGMGFEVVNTYPSGYILQAKEMQKDGGDNVWYKVKDGWLSANYTIDI,-0.787
25,HMVGEYTVKKGDTLWKIAGQTLGSPLRYAEIYELNKDVIEEAALGRGKKNSSNGHWIFQGTVLKIPA,-0.188
26,HMNPETLTNSSVIKMSKANLSDELITDMILNSPVKFDLSAGAIKTLESEGVTPAVLESMKNAASK,0.131

row,Sequence,soluble fraction (log2)
1,HMPGPAEMPGWITARAKKLGGQITPEAARALAAEMGSDTEQASREIEKLLTYVDYRRPVEEEDVALLTA,0.16
2,HMGASSLVGRSARVLQAVTDSDGRIKLAGETWSARLAAGATSTVGPGEEVRVIAIHGATAIVAPV,-0.581
3,HMGSLVKLQSAAELHQAGRSAEAVPILLEVLATNPRLVDGWEILANALEKLGRLDEALAALKKTVALSPPG,-1.55
4,HMDEFHLSERERQILNLLVLGHTYKHIASDLNIAYATVNKHVSNVYAKLRVQSASEAVALAIRKGL,-0.992
5,HMFQPFFENLRKASIPVSLREYLTFLEGMKKGLVTYDIEAFYFLARAAMVKDERNIDKFDRAFSATFKG,-0.306
6,HMAKLGITQREQEVLQLLVTGKTYKEIAAELFISLPTVKTHVSNIYSKAKVRNRLELSNLINYI,-3.37
7,HMAEPTLNERLREALSDPAKLKIAKAIKAKYPIITARDIDTFLNMHEKDIENGADPMDEFEEFFHANY,0.201
8,HMKIIDDIQEFAGVTKTQNTFFHIFNHLHQNGKQLILTSDRAPVMLQGMEERLLTRFKWGLVAELE,0.285
9,HMNPSRPASKEELLGLFEHLERALDAVTFFRPAEKKPVVVQTLRAMLTKASFTEQDIRTMRGVIAALEN,-1.59
10,HMDIPGITAVKPQAAFYMFPKIDVKKFNIVNDEKFALDLLQDKKILIVQGSGFNWKQPDHFRVV,0.177
11,HMRGDEDTGVWPTPMKRAYIDSLLKGYPTGVTMIVKPPGASHTTKWMILDGANRARALRDFMNDEFMI,-0.0871
12,HMDPSDQLYTVPPSAEGLRLDLFLVQHVPHMTRALATQLTGAGQVRVNGRRAKKGDRLPSGAQVRLEQAP,-0.85
13,HMYMLYQQLADSLRDKIYEGTYTFGDKIPSERTLAATFGISHLTVRKALAILEEEGLLDRRQGNGTFVRV,-1.09
14,HMKSGLLNLSTRKQEKIKQALLSEFSNVSLLEAKVANIVTLAEISRGSFYTYFEDIYDAYQWLASI,-0.513
15,HMAHSDEAWSVARRVARELDKILDGAGPRRTALVRAAAELRLSTRQIYNLLARYRADRTVTSLLPRR,-0.27
16,HMEVADAAQRKILQALQVQPLTVEQLSQELRTDTGDLLVSLSMMEITGLIRREAGNTFLAVFAPK,-1.66
17,HMSASTGTVSYKSGATTVWNSPSWHQVKRYVTFGDTVQLLGKTVDQNGATWYKVGDNQWIPELYLNVAG,-0.725
18,HMKLLLSANISKLRKKYSMTQEQLAEALGVTFASVSKWERGVATPELKLIAEMADMFEVSIDALIGYEFRN,-1.87
19,HMKGEKVTKIELSNFIKFLINDLENKGFFNPPEKKDSMIDNIYSIYNKMTLTKKELNMLWGMHKKLK,-1.9
20,HMVINTRHTGFVVDDLERFINFYLGLGLKLISRKVESGEYIDKLVGLKGTKLEWAKLSLPDNSMIEILKYH,-0.508
21,HMSKEIQNILASLPSVDVLLKQIDPIYPHGKAKEATQQVVARLRESVVDGTRKTVIDQKEVIAMIHKQLEE,-0.293
22,HMIKILGSAYRHGLDDDDILRAWNYHIQEFFEGEDPEKIVRLGFDTHGRLLEIGGEIYPGGGEKIFHAM,-0.733
23,HMNYDPEEKITQIRTMLEIHSRIEFNEIITPATRRGEIIIIFLALLHMIKRGYIVVRQHRLFGDITIFARD,0.0974
24,HMDVRKSISDLKALGLSDAAVTVYGTIGNKPVHIDKIVSELGIPVFKVLTALTQLEMKGLVTAMQGRMYVL,-2.13
25,HMPFNREYWIEQLLKEVGLMGTPYAELDKHEVELDSPTGRASGFKVNAKTYVDQQLLFIENEYNNQPE,-0.533
26,HMVQPSAAVRAHPVGAFVEQRQGLSDDQILALQKKWNEGIYARIQGTRWFLFSKDTPAVTSLLLVPDLP,-0.47

row,Sequence,soluble fraction (log2)
1,HMNREYELTAEESGQRLDKYLAGEMTDLSRSRIKELVQAGEILVNGKKSKVSYKVQKDDLIQVIVLPLE,-0.402
2,HMRSLATFEEEKIALRFWNYLQSEGIKSTLEEEGPRDWVIWVIDEEKIPSATQSLEKFNLNPDDPAFSN,-0.784
3,HMSDVVFRINANGLNVSGLANGERVSVYDTTGKLVTTAVSTQDNGTLNLPLKQSGGIYIARTQSGVSFKFT,-0.786
4,HMSPDLNEVEEKVFRALNGVESMHVNKLGIELNLPVSELFFTLLELEMKNVVKALPGGMYKL,-2.26
5,HMVDITPDLIRTLLERFGEYGVTKEHIEARIQRHIESILPAQVVQLRKTYNSLKDGMSQPSDWFDI,-1.9
6,HMKITLAESVYERIRRDIITNQLKPGEKINIRELSTRYEASETPIRLALNRLASENIIEHFPRQGMRVK,-1.4
7,HMSQISKLWRPSEDVTEILTRSGMDSEFLEGLIPEFIIYWSERADVLVSYNSKFIEHARLKWAQHSAEIKT,-4.48
8,HMVEVPKVAGMSTAQGVSELEQKGFVVNRTESYDDTVPKGNIISQTPEGGTKVPSGSAVTIKISQGAE,-0.159
9,HMTKEEFLYELKKELSALDSAEATAYNLRYYSDYIDAEIAKGRSEQEVLDELGNPRWLVNSIKESG,-0.139
10,HMADEEEIMVPQVVGKTYDEAKSELENAGFKVEKNEKTSDKASGTVISQSINGGAKKGTSVTLTVSKGN,0.0356
11,HMEVEIPSREALLGLVQKHLKPVSFDEFVSHFKLGDERQQVGIKRRLRAMERDGQLVYTKANSYGLPDRM,0.436
12,HMGDLKSLIQATMDDAGISIKPDAMDYLISHLGSDRLTTRAELDKLILYAGADDKLDLDSVVELVG,0.00366
13,HMVNFKLIGNKIAEARKKVNISQAQLAQRLFISSQAVGKWERGESMPDIITFNRLAEILGVDLNYFSE,-2.53
14,HMRGIPEEVADVAIQWVARLDSNEISDADRAAFFAWLDASPINRWAYNDISESWAKLSILNEMGH,-1.87
15,HMKMPNGYGSITKLSGKRRKPWRVRKTAGWELDAKTQKLKQTYINIGYYETRADAMSALVSYNEDP,-1.01
16,HMAFKDDDVQKAYDRYMDRYGELSVLYSDNGLKVDDDLFYKNNIPPNGKFTKEFFDELYELVNMEFINNY,-0.173
17,HMAMDVKEVLLPGVGLRYEFDNSDGDRIGVIAKRSGDFEVVRYTAADRDAAQPMFRLTDEEADALAQILGA,0.224
18,HMHSVIALTIPADYAGLRLDQALAKLLPNWSRSRLQTWIAENRVILDGQITTIKQKVWGNELIQISPQD,-1.67
19,HMNNKVAVKSGYYFEIFNKEEIPTTLAKTKQKVKINNIQYDLYQGMSLDDERKIDDMFGDRMGYSIDDY,-1.07
20,HMRSIVETLTDRELEIFQLIGNGFSTGEIARRLNLSPHTIETHRKNIKDKLGLSSGSELNKQAIQWVLSS,0.244
21,HMGPSEVTLDNFVGKNYTDVVNDTSYQFTFKKEEKSDQTHAAGIIIAQSPKKGIKVKSNSTVTLTVSTG,0.359
22,HMNEIDLEAAKRIALQNAGVESADAAFTKAQLDYDDGVAEYEIEFVAGSTKYEYEISAANGTVLKSSKESV,-0.0387
23,HMDSLSLTELRIDSASPWIGNRISDFSPYAGELVIMIIRGEETIVPNGDTIILDKDLLVIYSS,-2.11
24,HMGDEHYDTISAFIKSVRGSDPDAALYWLAKMILAGEDPRFILRRLIVLSGEDIGLADPQGI,-0.552
